B1: Rrn11p subunit of recombinant core factor, N-terminal 6-his (natural protein, S. cerevisiae, UniProt Q04712 1-507, looked up)
chain: MFEVPITLTNRKFAQRRKLKYQYINYISRRFDRISKKSTTTDSLPTPENSAAENNDEEEGQNSEAGTYRRSVLQQKKRRRERHWRSVVGEIYSTTESETDSQEEETEEGGEHDTGIDKEDSDEERKFWKKYEKPEKSFEIWRTVSSQNKQPINKQKMTYHNFKKIEKIPLRKMEIPLLHCTKENKLYFQSISRGLEPLKTSTSEVRNYRTRHIVTLTDLLHLNVSRHNWSLAYKIFATLIRIPGVQIKSLWGIGVEILDNLSNSSSGLDFLQWMCQIYSSKSRFVQNINYRSIVPPFQTGSRTHTAKFAITYLWSSLINCQKSMEPSSNIIDKPFDTENDLLQELIDKISEWVLTPPFMEDAEVWFIYASCHLLKADTLSRQFVNDNKNNDLIGLDRDIKINQVIKHIHYVRTFLKICLDKGGFAVPSRLIENQLKSFESRLYGEAQDIQERDVANVYDSIDNSSVENSFGDVYETNAEFLDTQLMDLSPEDNGLDEMHYSDEDSSE
B2: Rrn6p subunit of recombinant core factor (natural protein, S. cerevisiae, UniProt P32786 1-894, looked up)
chain: MSEGQIPSSDVLGSQLGVGVQGASLYCPQENYTTKKQEKPQWLRPVDDTLAEDALDLHIVVKSLLCDTAIRYISDDKVLQESDADDDLITSDIDEDTDNQGDTSIVVNPVIPVVPKDVHFFKKVDVGNDSMFGVNCDTPVSFQDYIPSDLLRNLDDTLQESTNSSRPMQDAFFWDPTVANRLDSQYIQTASDLRNYRDGTEIIAYASGKTGSVLNIAVLTRQNTLHLNRHNNVTSIELHSPIKSIKIPGASESIGRRSNLVGIITENSFQIFRIESVHSRSCDVMVSSSEPLYFVEIDDLQVVDFAFNPWDLQQFAIIDIKGNWSIGRIPKNFNNNNKRKLQLIDNLHGTIFDPEELSSWKRIEWFSHFQKILVFDRSKMIEIDFMNNWQTEVVQAKAWSNIRDYKRIDDKNGILLTSREIIIVGASESNDPVRRISWKHDLDPDDTTLRITVQKVKKPDHILLVAFVYSMRHKRIYMHVFSHRKANLFQSLGCSTVLEIPGGTPTGIETILTLDHIDDESRREEDADENFELVVDFLVKLRNSSEVYYYALSNTQNSEPNKQETPIIVDHPEWASLFNNADEREKESIGALVSQIKLKERERISRVQNLIEHENSHDEDKYLQDLGYRLSIATNELLESWQKTKDESILSGSLSHSKLKNLLENSDSFASIPEFSSLLDQFFQYYQDQDVTFIGFEKLLHLFLHEDVPGLDIFYNKLLQCWVLVSPQAELLTKEIVKDIIWSLARLEKPSLFEPIQNEISRSLSGPYQDIISSWDMDDINEEDESNEFNFDSQFSAPFNGRPPFNLNSQSQIPTIKSSQSSGLARRKRILKTQSQKATPLSQSTQNLSVLPDSMTPAFTLMQPPSSQISFVNDSQPRNSQKAKKKKKRIRGFG

Legend:
[1] = biological target: T1, Rrn7p subunit of recombinant core factor, N-terminal 6-his (S. cerevisiae, UniProt P40992 1-514); assay: quantification of Sypro Ruby stained SDS-PAGE bands of the purified complex
T1 sequence (looked up): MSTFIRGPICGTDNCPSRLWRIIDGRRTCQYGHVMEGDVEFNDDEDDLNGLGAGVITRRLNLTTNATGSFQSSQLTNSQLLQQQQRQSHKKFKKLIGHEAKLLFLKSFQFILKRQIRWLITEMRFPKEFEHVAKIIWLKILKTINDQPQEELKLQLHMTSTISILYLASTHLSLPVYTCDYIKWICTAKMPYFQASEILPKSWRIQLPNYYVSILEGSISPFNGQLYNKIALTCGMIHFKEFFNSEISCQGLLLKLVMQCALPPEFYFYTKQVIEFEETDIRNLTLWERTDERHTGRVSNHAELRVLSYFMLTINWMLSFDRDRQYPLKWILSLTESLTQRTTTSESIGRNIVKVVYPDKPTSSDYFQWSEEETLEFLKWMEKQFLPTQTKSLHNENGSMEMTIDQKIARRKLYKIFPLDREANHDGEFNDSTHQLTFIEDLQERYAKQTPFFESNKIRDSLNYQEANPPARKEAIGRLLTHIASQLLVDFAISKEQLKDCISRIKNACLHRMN

[2] = biological target: B1; assay: as above

Binder | stoichiometry N [1] | stoichiometry N [2]
B1 | 1 | 
B2 | 1 | 1

From publication PMC3246092 (Gene, 2011)
